From article PMC6874894

System: CTCF
Test: EMSA

## 50 bp probe rs150502618-A
  binding signal (% increase in binding vs G allele (N1)): 15

## 230 bp probe rs150502618-A
  binding signal (% increase in binding vs G allele (N3)): 8
